Assay [1] concerns the target bovine pancreatic chymotrypsin (bovine). The assay can be described thus: apparent Ki, Morrison fit, 25 nM chymotrypsin.
Assay [2] shares this target. Kind of assay: apparent Ki, intercept of IC50 vs chymotrypsin concentration.

B1: ixochymostatin (natural protein)
chain: ANTGIEWPPKPQKCAEGETWKECVGSSCAELTCEHPEPSLGCTYDCNYGCYCAPDFFRNANKECVKKDKCP
Consider B1, for which the results for the Ki in assay [1] and in assay [2] were 0.99 nM and 16.5 nM, respectively.
